One may read the Kd as the free concentration of one partner at which half of the binding sites on the other are occupied at equilibrium, for simple one-to-one binding.

The text below walks through data of paper PMC6208296, “Redox regulation of pyruvate kinase M2 by cysteine oxidation and S-nitrosation” (Biochemical Journal, 2018).

Assay [1] deals with Pyruvate kinase M2 (Homo sapiens) (UniProt P14618). The assay is described as follows: gel filtration. Conditions: cited from earlier work. (In general: SEC sorts molecules by how far they enter the pores of the column.)
For assay [2], the target named is M2 isoform of human pyruvate kinase, wild type (human) (UniProt P14618). The experiment in a line: SEC; analytical gel filtration, Superdex 200 PC 3.2/30 in PBS-CM, room temperature; 0.1 mg/ml incubated 12 h (equilibrium) without or with 1 mM DTT or 20 μM H2O2; tetramer to monomers, peak areas on a bimodal distribution.
Assay [3] has the same target. The experiment in a line: SEC; analytical gel filtration, Superdex 200 PC 3.2/30 in PBS-CM, room temperature; stock of ∼20 mg/ml diluted to 0.1 mg/ml and incubated 1 h without or with 1 mM DTT or 20 μM H2O2; tetramer to monomers, peak areas on a bimodal distribution.

Sequence of M2 isoform of human pyruvate kinase, wild type, P14618 1-531 (enzyme; other documents disagree on this pair) (P14618 whole entry, canonical isoform): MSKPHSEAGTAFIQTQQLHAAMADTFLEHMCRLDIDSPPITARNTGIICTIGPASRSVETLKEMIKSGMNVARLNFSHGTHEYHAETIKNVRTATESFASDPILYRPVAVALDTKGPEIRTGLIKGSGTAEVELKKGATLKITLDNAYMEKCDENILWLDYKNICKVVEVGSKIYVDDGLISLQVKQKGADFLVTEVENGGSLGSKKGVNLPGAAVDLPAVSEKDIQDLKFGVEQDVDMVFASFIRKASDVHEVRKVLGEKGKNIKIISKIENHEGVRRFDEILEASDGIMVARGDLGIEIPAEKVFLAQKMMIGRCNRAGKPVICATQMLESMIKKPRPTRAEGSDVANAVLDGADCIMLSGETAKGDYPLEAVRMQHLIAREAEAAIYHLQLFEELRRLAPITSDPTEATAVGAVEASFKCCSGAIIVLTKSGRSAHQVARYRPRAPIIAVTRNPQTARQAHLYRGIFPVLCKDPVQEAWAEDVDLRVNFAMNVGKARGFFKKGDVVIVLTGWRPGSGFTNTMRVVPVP
Sequence of Pyruvate kinase M2 (P14618 2-531): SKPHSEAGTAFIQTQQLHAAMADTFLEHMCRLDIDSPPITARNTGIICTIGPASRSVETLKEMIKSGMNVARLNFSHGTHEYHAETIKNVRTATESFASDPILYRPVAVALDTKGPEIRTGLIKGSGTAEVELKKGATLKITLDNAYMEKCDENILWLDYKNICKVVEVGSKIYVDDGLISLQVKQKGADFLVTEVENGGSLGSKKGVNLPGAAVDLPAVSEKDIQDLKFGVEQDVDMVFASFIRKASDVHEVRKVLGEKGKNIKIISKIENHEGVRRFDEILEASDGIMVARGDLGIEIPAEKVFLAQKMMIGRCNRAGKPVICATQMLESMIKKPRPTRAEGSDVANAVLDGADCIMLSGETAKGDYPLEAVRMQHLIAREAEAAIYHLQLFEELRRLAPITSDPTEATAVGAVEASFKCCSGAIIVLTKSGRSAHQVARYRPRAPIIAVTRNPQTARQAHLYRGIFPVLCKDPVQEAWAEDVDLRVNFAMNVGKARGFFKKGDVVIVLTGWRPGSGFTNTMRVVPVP

Turning to “Pyruvate kinase M2 (from UniProt P14618)”, the Kd in assay [1] was 900 nM.
As to “M2 isoform of human pyruvate kinase, wild type, P14618 1-531 (enzyme; other documents disagree on this pair)”, in assay [2], the percent tetramer (20 μM H2O2, 12 h) is 42%; the percent tetramer (1 mM DTT, 12 h) is 71%; the percent tetramer (no DTT, no H2O2, 12 h) worked out at 55%. Also, in assay [3], the percent tetramer (20 μM H2O2, 1 h) was determined as 63%; the percent tetramer (1 mM DTT, 1 h) came out at 64%; the percent tetramer (no DTT, no H2O2, 1 h) was found to be 62%.
